{"source": "paper PMC4278352", "origin": "cited, not measured here", "target": "PikAIII docking domain (Streptomyces venezuelae) (UniProt Q9ZGI3)", "sequence (Q9ZGI3 1-34)": "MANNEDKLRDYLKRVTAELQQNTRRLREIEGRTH"}
{"substance": "PikAII docking domain (from UniProt Q9ZGI4)", "values": [{"measurement": "Kd", "value": 5, "unit": "µM"}]}
